Publication PMC12487280

Legend:
[1] = CHX-chase, Western blot, ccRCC cells; details: glycan lost; control: WT / shCtrl / untreated
[2] = Western blot of UBAP2L, ccRCC cells; details: glycan lost; control: shCtrl / untreated
[3] = UBAP2L/G3BP1 immunostaining, granules per cell; details: glycan lost; control: sunitinib without OSMI-1
[4] = UBAP2L/G3BP1 immunostaining after sunitinib; details: glycan lost; control: UBAP2L-WT overexpression
[5] = CCK-8 dose response, 786-O and Caki-1; details: glycan lost; control: UBAP2L-WT overexpression

B1: UBAP2L: OSMI-1 (protein)
parent chain: MMTSVGTNRARGNWEQPQNQNQTQHKQRPQATAEQIRLAQMISDHNDADFEEKVKQLIDITGKNQDECVIALHDCNGDVNRAINVLLEGNPDTHSWEMVGKKKGVSGQKDGGQTESNEEGKENRDRDRDYSRRRGGPPRRGRGASRGREFRGQENGLDGTKSGGPSGRGTERGRRGRGRGRGGSGRRGGRFSAQGMGTFNPADYAEPANTDDNYGNSSGNTWNNTGHFEPDDGTSAWRTATEEWGTEDWNEDLSETKIFTASNVSSVPLPAENVTITAGQRIDLAVLLGKTPSTMENDSSNLDPSQAPSLAQPLVFSNSKQTAISQPASGNTFSHHSMVSMLGKGFGDVGEAKGGSTTGSQFLEQFKTAQALAQLAAQHSQSGSTTTSSWDMGSTTQSPSLVQYDLKNPSDSAVHSPFTKRQAFTPSSTMMEVFLQEKSPAVATSTAAPPPPSSPLPSKSTSAPQMSPGSSDNQSSSPQPAQQKLKQQKKKASLTSKIPALAVEMPGSADISGLNLQFGALQFGSEPVLSDYESTPTTSASSSQAPSSLYTSTASESSSTISSNQSQESGYQSGPIQSTTYTSQNNAQGPLYEQRSTQTRRYPSSISSSPQKDLTQAKNGFSSVQATQLQTTQSVEGATGSAVKSDSPSTSSIPPLNETVSAASLLTTTNQHSSSLGGLSHSEEIPNTTTTQHSSTLSTQQNTLSSSTSSGRTSTSTLLHTSVESEANLHSSSSTFSTTSSTVSAPPPVVSVSSSLNSGSSLGLSLGSNSTVTASTRSSVATTSGKAPPNLPPGVPPLLPNPYIMAPGLLHAYPPQVYGYDDLQMLQTRFPLDYYSIPFPTPTTPLTGRDGSLASNPYSGDLTKFGRGDASSPAPATTLAQPQQNQTQTHHTTQQTFLNPALPPGYSYTSLPYYTGVPGLPSTFQYGPAVFPVAPTSSKQHGVNVSVNASATPFQQPSGYGSHGYNTGVSVTSSNTGVPDISGSVYSKTQQSFEKQGFHSGTPAASFNLPSALGSGGPINPATAAAYPPAPFMHILTPHQQPHSQILHHHLQQDGQTGSGQRSQTSSIPQKPQTNKSAYNSYSWGAN
decreases: degradation_or_half_life [1] | expression_or_secretion [2] | other: stress granule formation [3]

B2: UBAP2L: S305A (protein)
parent chain: MMTSVGTNRARGNWEQPQNQNQTQHKQRPQATAEQIRLAQMISDHNDADFEEKVKQLIDITGKNQDECVIALHDCNGDVNRAINVLLEGNPDTHSWEMVGKKKGVSGQKDGGQTESNEEGKENRDRDRDYSRRRGGPPRRGRGASRGREFRGQENGLDGTKSGGPSGRGTERGRRGRGRGRGGSGRRGGRFSAQGMGTFNPADYAEPANTDDNYGNSSGNTWNNTGHFEPDDGTSAWRTATEEWGTEDWNEDLSETKIFTASNVSSVPLPAENVTITAGQRIDLAVLLGKTPSTMENDSSNLDPSQAPSLAQPLVFSNSKQTAISQPASGNTFSHHSMVSMLGKGFGDVGEAKGGSTTGSQFLEQFKTAQALAQLAAQHSQSGSTTTSSWDMGSTTQSPSLVQYDLKNPSDSAVHSPFTKRQAFTPSSTMMEVFLQEKSPAVATSTAAPPPPSSPLPSKSTSAPQMSPGSSDNQSSSPQPAQQKLKQQKKKASLTSKIPALAVEMPGSADISGLNLQFGALQFGSEPVLSDYESTPTTSASSSQAPSSLYTSTASESSSTISSNQSQESGYQSGPIQSTTYTSQNNAQGPLYEQRSTQTRRYPSSISSSPQKDLTQAKNGFSSVQATQLQTTQSVEGATGSAVKSDSPSTSSIPPLNETVSAASLLTTTNQHSSSLGGLSHSEEIPNTTTTQHSSTLSTQQNTLSSSTSSGRTSTSTLLHTSVESEANLHSSSSTFSTTSSTVSAPPPVVSVSSSLNSGSSLGLSLGSNSTVTASTRSSVATTSGKAPPNLPPGVPPLLPNPYIMAPGLLHAYPPQVYGYDDLQMLQTRFPLDYYSIPFPTPTTPLTGRDGSLASNPYSGDLTKFGRGDASSPAPATTLAQPQQNQTQTHHTTQQTFLNPALPPGYSYTSLPYYTGVPGLPSTFQYGPAVFPVAPTSSKQHGVNVSVNASATPFQQPSGYGSHGYNTGVSVTSSNTGVPDISGSVYSKTQQSFEKQGFHSGTPAASFNLPSALGSGGPINPATAAAYPPAPFMHILTPHQQPHSQILHHHLQQDGQTGSGQRSQTSSIPQKPQTNKSAYNSYSWGAN
decreases: other: stress granule formation [4] | degradation_or_half_life [1] | other: sunitinib resistance of cells, IC50 [5]
